From patent US20220119517A1 (NANJING SANHOME PHARMACEUTICAL, published 2022)
Numbering of substitutions follows the chain as printed. Values belong to the binder of their own block, whether it stands above or below them.

Key:
[1] = molecular target: T1, human Claudin18.1 (CLDN18.1), full length, on cells (human, UniProt P56856 1-261); assay: cellular ELISA
T1 construct: HEK293-CLDN18.1 cells carry a fusion with green fluorescent protein (ZsGreen); CHO-K1-CLDN18.1 cells carry pcDNA3.1-CLDN18.1; The cell line is named under assay; also called CLDN18.1-FL; HEK293-CLDN18.1 cells

[2] = molecular target: T2, human Claudin18.2 (CLDN18.2), full length, on cells (human); assay: FACS on NUGC4 cells
T2 construct: also called CLDN18.2-FL; HEK293-CLDN18.2 cells
Text: (§1) Human gastric cancer cells NUGC4 and stably transfected cells CHO-K1-CLDN18.1 (prepared in Example 5) were used respectively, to verify the specificity and affinity of the anti-CLDN18.2 antibodies above at the cellular level by FAGS technology. After antibody affinity maturation and screening in vitro, each antibody can bind to the CLDN18.2 target on NUGC4 cells, but not to CHO-K1-CLDN18.1 cells, as compared with the original 3CHI antibody.

[3] = molecular target: T2, human Claudin18.2 (CLDN18.2), full …; assay: cell-based or functional assay
[4] = molecular target: T1, human Claudin18.1 (CLDN18.1), full …; assay: FACS on CHO-K1-CLDN18.1 cells
Text: as §1

[5] = molecular target: T3, antigen protein Claudin18.2-His (human, UniProt P56856-2 1-261, limits assumed); assay: BLI (Fortebio Octet RED96), antibody on AHC sensor, Claudin18.2-His in solution, 37 °C
T3 construct: also called CLDN18.2 protein
Description: Next, antibodies were immobilized by the AHC sensor, and then combined with different concentrations of antigens, and determination of the affinity was performed according to the manual of Octet RED96.

[6] = molecular target: T2, human Claudin18.2 (CLDN18.2), full …; assay: cellular ELISA
[7] = molecular target: T2, human Claudin18.2 (CLDN18.2), full …; assay: cell-based or functional assay; remark: listed apart in the source

B2: 307CHI (antibody, V domains shown)
VH: EVKLVESGGGLVQPGGSLKLSCAASGFGFSDYGMAWVRQAPRKGPEWVAFISNSAYSIYYADTVTGRFTISRENAKNTLYLEMSSLRSEDTAMYYCARLGYGNSFAYWGQGTLVTVSA
VL: DIVMTQSPSSLTVTAGEKVTMSCKSSQSLLNSGNQKNYLTWYQQKPGQPPKLLIYWASTRESGVPDRFTGSGSGTDFTLTISSVQAEDLAVYYCQNNYYYPLTFGAGTKLELK
notes: chimeric with the constant region of human IgG1
binding result [6]: binds | binding result [1]: no binding

B3: 306CHI (antibody, V domains shown)
VH: B2 VH with G28T, S54L, Y101R
VL: B2 VL with N97D, Y99S, Y100F
notes: as for B2
binding result [6]: binds | binding result [1]: no binding

B4: 319CHI (antibody, V domains shown)
VH: B2 VH with Y101R
VL: B2 VL
notes: as for B2
binding result [6]: binds | binding result [1]: no binding

B5: 308CHI (antibody, V domains shown)
VH: B2 VH
VL: B2 VL with N97D, Y99S, Y100L, L102F
notes: as for B2
binding result [6]: binds | binding result [1]: no binding

B6: 313CHI (antibody, V domains shown)
VH: B2 VH with G28T, S54L, Y101R
VL: B2 VL
notes: as for B2
binding result [6]: binds | binding result [1]: no binding

B7: 328CHI (antibody, human IgG1, V domains shown)
VH: B2 VH with Y101R
VL: B2 VL with A57G
notes: as for B2
binding result [6]: binds | binding result [1]: no binding

B11: Hu330-2 (antibody, V domains shown)
VH: EVQLVESGGGLVQPGGSLRLSCAASGFGFSDYGMAWVRQAPGKGLEWVSFISNSAYSIYYADTVTGRFTISRDNAKNSLYLQMNSLRAEDTAVYYCARLGRGNSFAYWGQGTLVTVSS
VL: EIVMTQSPPTLSLSPGERVTLSCKSSQSLLNSGNQKNYLTWYQQKPGQAPRLLIYWGSTRESSIPARFSGSGSGTDFTLTISSLQPEDLAVYYCQNELFYPLTFGQGTKLEIK
ADCC activity by luciferase labeling, EC50 [7]: 0.11 nM | ADCC activity by luciferase labeling, Top [7]: 65100

Now from value to binder:

binding result [1]: no binding | MFI (CLDN18.2) [2]: 38900 MFI | in-vitro ADCC activity, Jurkat-CD16A/NF luciferase reporter, EC50 [3]: 0.28 nM | in-vitro ADCC activity, Jurkat-CD16A/NF luciferase reporter, Top [3]: 216000 | MFI (CLDN18.1) [4]: 68 MFI | Kd [5]: 0.865 nM | koff [5]: 4.44e-05 s⁻¹ | kon [5]: 51300 M⁻¹ s⁻¹
B1: 305CHI (antibody, human IgG1, V domains shown)
VH: B2 VH with G28T, S54L
VL: B2 VL with N97E, Y98L, Y99F
notes: as for B2

binding result [6]: binds | binding result [1]: no binding
B8: 312CHI (antibody, human IgG1, V domains shown)
VH: B2 VH with G28T, D31R, R42G
VL: B2 VL with N97E, Y98L, Y99F
notes: as for B2

binding result [6]: binds | binding result [1]: no binding
B9: 304CHI (antibody, V domains shown)
VH: B2 VH
VL: B2 VL with S62P, N97D, Y99S
notes: as for B2

binding result [6]: binds | binding result [1]: no binding
B10: 302CHI (antibody, V domains shown)
VH: B2 VH with G28T, S54L
VL: B2 VL with N97D, Y99S, Y100L, L102F
notes: as for B2
